Target: sorting nexin 9 (SNX9) (UniProt Q9Y5X1)
Experiment: anti-eGFP nanobody pulldown, SNX9 immunoblot
Conditions: reference: Dyn1a wild type-eGFP; sites S774,S778

Substance “dynamin-1 (Dyn1a) (from UniProt Q05193) Dyn1a S774/8A-eGFP” has a fold change of 3.6.

— publication PMC5927468
